Where no end group is shown, it is not given here. [ ]: non-standard residue; d: D form.
Assays:
platelets = assay: P-HL interaction with platelets in plasma (flow cytometry, co-aggregates); type: cell-based; conditions: 0.75 mM lipid, washed platelets, one hour at room temperature
Experimental: Red anti-Cd42-PE antibodies (7 μL) to detect platelets and 5 μL green anti-vWf-FITC antibodies at a 1/160 dilution were added to the tubes and incubated one more time for 30 min. The samples were diluted to 1 mL with formolsaline solution and analysed by flow cytometry. Singlet platelets (platelet gate), singlet liposomes and co-aggregates (P1 gate) were scored.
The post-stained aggregates were positive for CD42 (GPIb) and vWf. All the relevant controls were done, and the critical double stained examples (with anti-CD42-PE and anti-vWf-FITC) were as follows:
FIG. 37A: platelets alone, double stained with anti-CD42-PE and anti-vWF-FITC FIG. 37B: HL (control liposomes), double stained FIG. 37C: P-HL (D3-peptide hydrogel liposomes), double stained FIG. 37D: HL+platelets, (double stained) FIG. 37E: P-HL+platelets, (double stained)

[1] = Stability of the covalent linkage of peptide to hydrogel liposomes (Trp fluorescence); type: physicochemical; conditions: hypothermic liquid storage, 4° C., under nitrogen, in the dark
Experimental: In brief: fluorescence emission at 348 nm (excitation 280 nm) of the single tryptophan of peptide D-Pep3 was used to analyze the stability of the peptide on the liposomes' surface. Fluorescence emission standard curves of trp-associated fluorescence were prepared using a range of concentrations from 1 μM to 20 μM free peptide D-Pep3 in the presence of 1 mM PEG2000 or HL liposomes (FIG. 34).
HL and PEG2000 liposomes were reacted with D-Pep3 peptide (as described according to Scheme 1) then washed and adjusted to a concentration of 1 mM lipid. The fluorescence emission was measured. The samples were stored under nitrogen, in the dark, at 4° C. for one month. The liposomes were again washed, resuspended to the same lipid concentration and the fluorescence emission was measured as before (FIG. 35). The attachment was stable for >1 months in hypothermic liquid storage.

vWf = target: T1, vWf (Homo sapiens, UniProt P04275); assay: Capture of vWf from plasma cryoglobulin fraction; type: binding; conditions: human cryoprecipitate 1/100, 1 hour at 37° C., anti-vWf-FITC
T1 construct: mixed with 5 μL human cryoprecipitate diluted 1/100 in Hepes Buffered Saline; from tissue; host or cells: human plasma cryoprecipitate
Experimental: Aliquots of 30 μL of HL or D-Pep3-HL liposomes were mixed with 5 μL human cryoprecipitate diluted 1/100 in Hepes Buffered Saline, (10 mM Hepes, 154 mM NaCl, pH 7.4.) The samples were diluted in buffer to achieve final lipid concentrations of 0.1, 0.25, 0.5, 0.75 and 1 mM, and incubated for 1 hour at 37° C. Anti-vWf-FITC antibodies were added (final dilution 1/128) and incubated for 40 minutes at RT. Samples were diluted with 350 μl of formal-saline and analyzed by flow cytometry.

purified vWf = target: T2, purified vWf (Homo sapiens, UniProt P04275); assay: Random 15-mer D-peptide array probed with purified vWf; type: binding; conditions: peptide on cellulose membrane, detection with anti-human vWf IgG-HRP
T2 construct: gift of Dr. F. A. Ofosu, McMaster University
From the text: Random D-amino acid peptides (15 mer) were synthesized and probed with vWf to detect random sequences capable of binding vWf.
Random peptide arrays of 1120 peptides made of D-amino acids were synthesized on a cellulose membrane using an AutoSpot ASP 222 peptide synthesizer (ABiMED, Langenfeld, Germany). The resulting replicate libraries of 15-mer sequences were probed for vWf binding function by exposing the membranes to purified vWf (a gift of Dr. F. A. Ofosu, McMaster University, Hamilton ON, Canada) and blocking with milk, then identifying positive spots with a polyclonal goat anti-human vWf IgG coupled to horseradish peroxidase (Cedarlane, Canada). Immunochemical detection was done using the chemiluminescent substrates from the Amersham Pharmacia ECL kit; and the resulting spots were recorded on photographic film. Negative controls consisted of probing the membranes with the antibodies only, but without prior exposure of the membrane to purified vWf.
Peptides on random 15-mer peptide arrays that were built of D-amino acids were selected by their binding of vWf. Four sequences were identified: D-pep1-VSRQNGKQYWAIKEG (SEQ ID NO:1); D-pep2-WQNEGTHVLSRCYEC (SEQ ID NO:2); D-pep3-RSARMQVCWNAFKNR (SEQ ID NO:3); and D-pep4-DSCPRDWDNNFLFFE (SEQ ID NO:4). […] The identification of each vWf-peptide binding interface constitutes the results that follow.
Source—a random d-peptide array was probed with vWf and developed with […]. “Forward” D-amino acid peptides were tested, although L-amino acid versions of the peptides as well as the reverse (retro) of both L- and D-sequences will be also encompassed within the scope of these receptor molecules.

purified GPIb = purified GPIb (Homo sapiens, UniProt P07359); assay: Overlapping vWf L-peptides on cellulose membrane probed by purified GPIb; type: binding; conditions: detected by anti-GPIb coupled to HRP
Experimental: The vWf amino acid sequence was used to generate 10-mer L-amino acid overlapping peptides, shifted by two (2), according to the following pattern:
These peptides were synthesized and remained attached on the cellulose membrane. The membranes were probed by purified GPIb which was detected by anti-GPIb coupled to horseradish peroxidase (HRP). A number of positive spots were found whose sequences were derived from their positions on the membrane.
The sequences were analyzed in silico by (a) finding their positions in a 3D model of the parent protein (see FIG. 17) and then (b) relating that position to the potential vWf-GPIb interactive site.

D-Pep3-HL: D-Pep3 peptide covalently attached by Michael addition to hydrogel-liposomes ([dR][dS][dA][dR][dM][dQ][dV][dC][dW][dN][dA][dF][dK][dN][dR]; also: covalently attached to PEG hydrogel-coated liposome by Michael addition (Cys thiol or amines))
aggregate formation with platelets (platelets): form aggregates | stability of the peptide attachment [1]: > 1 months | binding (capture) of vWf (vWf): able to bind their specific ligand

DSCPRDWDNNFLFFE (not fully specified) [D-pep4]
binding of vWf (purified vWf): binding to vWf

EVLKYTLFQI [L-black]
binding of GPIb (positive spots) (purified GPIb): +ve

RSARMQVCWNAFKNR (not fully specified) [D-pep3]
binding of vWf (purified vWf): binding to vWf

SHAYIGLKDR [L-brown]
binding of GPIb (positive spots) (purified GPIb): +ve

VSRQNGKQYWAIKEG (not fully specified) [D-pep1]
binding of vWf (purified vWf): binding to vWf

WQNEGTHVLSRCYEC (not fully specified; cysteine pairing not given here) [D-pep2]
binding of vWf (purified vWf): binding to vWf

From patent US20170095421A1, “SYNTHETIC PLATELETS” (Maria I. C. Gyongyossy-Issa, priority 2006, published 2017)
